Consider 2 molecules from paper PMC5080701, “TIS7 induces transcriptional cascade of methylosome components required for muscle differentiation”.

Series [1] concerns the target T1, GST-TIS7 (TPA Induced Sequence 7) (mouse, UniProt P19182 1-449).
T1 sequence: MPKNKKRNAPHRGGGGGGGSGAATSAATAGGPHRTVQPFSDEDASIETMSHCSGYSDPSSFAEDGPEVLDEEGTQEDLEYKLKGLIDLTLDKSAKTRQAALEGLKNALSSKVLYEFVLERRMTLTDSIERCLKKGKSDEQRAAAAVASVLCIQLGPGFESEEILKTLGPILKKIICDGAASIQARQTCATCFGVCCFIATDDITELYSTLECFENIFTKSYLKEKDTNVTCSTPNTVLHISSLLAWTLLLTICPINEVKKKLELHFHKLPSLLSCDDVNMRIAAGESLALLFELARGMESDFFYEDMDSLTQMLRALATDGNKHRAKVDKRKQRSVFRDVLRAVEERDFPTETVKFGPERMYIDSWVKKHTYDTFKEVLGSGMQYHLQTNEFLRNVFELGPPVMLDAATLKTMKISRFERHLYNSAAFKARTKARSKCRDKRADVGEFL
The series is described as follows: EMSA; blocked by 20-fold excess of unlabelled oligonucleotide; supershifted by TIS7 antibody; EMSA: 1 ug probe, 10 min, 5% native PAGE (50 mM Tris pH 7.5, 0.38 M glycine, 2 mM EDTA; run in TBE), binding buffer not stated; SPR: Biacore X100, SA chip, oligos annealed in 30 mM Na3PO4, 200 mM NaCl, 1 mM DTT pH 7.2, protein dialyzed in 50 mM Tris pH 7.4, 150 mM NaCl; running buffer and temperature not stated. To be noted: protein: recombinant; tags: N-terminal GST; blunt. (In EMSA bound probe runs differently from free probe, usually more slowly.)

The target of series [2] is T1, GST-TIS7 (TPA Induced Sequence 7). The series is described as follows: SPR; Kd value printed only in Fig. 4d; 10-fold difference in Kd between native and scrambled sequence; EMSA: 1 ug probe, 10 min, 5% native PAGE (50 mM Tris pH 7.5, 0.38 M glycine, 2 mM EDTA; run in TBE), binding buffer not stated; SPR: Biacore X100, SA chip, oligos annealed in 30 mM Na3PO4, 200 mM NaCl, 1 mM DTT pH 7.2, protein dialyzed in 50 mM Tris pH 7.4, 150 mM NaCl; running buffer and temperature not stated. To be noted: protein: recombinant; tags: N-terminal GST; label: 5'-biotin on sense strand; blunt. In general terms: SPR reads the build-up and loss of mass on a sensor chip optically.

B1: ICln promoter minimal essential region (-154/-113), EMSA probe (dsDNA)
DNA 1: TAGAATGTCTCATCTCTATGGTCGACGGCGTTCAGATTCCG
DNA 2: CGGAATCTGAACGCCGTCGACCATAGAGATGAGACATTCTA
Take B1: the binding result in series [1] is “binds”.

B2: ICln promoter minimal essential region (-154/-113), SPR (dsDNA)
DNA 1: B1 DNA 1
DNA 2: B1 DNA 2
Regarding B2, the binding result in series [2] is recorded as “binds”.
